# According to US20110207628A1 (UNIVERSITY OF MIAMI, published 2011):
# T1: FLAG-tubby-F (full-length mouse tubby with N-terminal FLAG tag) (mouse, UniProt P50586 1-505)
# T1 construct: mature; also called FLAG-tagged tubby; tubby-vesicles
# T1 sequence: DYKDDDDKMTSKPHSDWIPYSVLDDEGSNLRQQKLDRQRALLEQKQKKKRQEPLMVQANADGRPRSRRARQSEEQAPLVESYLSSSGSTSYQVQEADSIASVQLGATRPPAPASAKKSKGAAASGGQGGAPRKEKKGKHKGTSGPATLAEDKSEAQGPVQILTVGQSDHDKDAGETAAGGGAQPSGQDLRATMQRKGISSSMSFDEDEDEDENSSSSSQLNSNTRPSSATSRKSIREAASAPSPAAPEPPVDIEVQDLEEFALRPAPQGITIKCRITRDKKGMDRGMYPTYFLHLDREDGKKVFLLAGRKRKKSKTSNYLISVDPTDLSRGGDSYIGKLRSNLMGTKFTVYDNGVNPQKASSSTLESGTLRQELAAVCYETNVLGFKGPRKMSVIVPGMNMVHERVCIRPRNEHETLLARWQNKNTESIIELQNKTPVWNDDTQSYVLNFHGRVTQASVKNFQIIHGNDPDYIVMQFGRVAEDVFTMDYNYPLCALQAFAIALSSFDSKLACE
# T2: FLAG-tagged Tulp2 (full-length mouse Tulp2 with N-terminal FLAG tag) (mouse, UniProt P46686 1-562)
# T2 construct: mature; Expressed from pcDNA3 in Neuro-2a cells; used as cell lysate or on membrane vesicles
# T2 sequence: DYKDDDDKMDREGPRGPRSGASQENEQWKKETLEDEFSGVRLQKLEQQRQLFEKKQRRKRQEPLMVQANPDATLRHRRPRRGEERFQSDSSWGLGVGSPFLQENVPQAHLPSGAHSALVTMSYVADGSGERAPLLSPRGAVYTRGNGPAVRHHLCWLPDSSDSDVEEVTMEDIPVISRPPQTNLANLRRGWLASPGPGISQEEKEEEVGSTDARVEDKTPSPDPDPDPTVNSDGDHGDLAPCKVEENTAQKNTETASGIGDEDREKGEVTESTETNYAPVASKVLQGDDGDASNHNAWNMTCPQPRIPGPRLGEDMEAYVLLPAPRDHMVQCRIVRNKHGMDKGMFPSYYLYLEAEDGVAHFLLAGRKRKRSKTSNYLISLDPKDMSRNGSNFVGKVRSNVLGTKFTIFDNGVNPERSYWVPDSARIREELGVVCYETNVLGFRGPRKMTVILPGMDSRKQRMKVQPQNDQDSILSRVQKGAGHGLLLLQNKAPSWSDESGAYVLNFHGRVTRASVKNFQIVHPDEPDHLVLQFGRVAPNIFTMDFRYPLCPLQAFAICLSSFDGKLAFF
# T3: tubby-N (N-terminus of mouse tubby, 1M-242P), GST-free (mouse, UniProt P50586 1-242)
# T3 construct: range 1-242; Expressed as GST-tubby-N in E. coli BL21(DE3), GST removed by 3C protease cleavage; also called GST-free tubby-N
# T3 sequence (looked up): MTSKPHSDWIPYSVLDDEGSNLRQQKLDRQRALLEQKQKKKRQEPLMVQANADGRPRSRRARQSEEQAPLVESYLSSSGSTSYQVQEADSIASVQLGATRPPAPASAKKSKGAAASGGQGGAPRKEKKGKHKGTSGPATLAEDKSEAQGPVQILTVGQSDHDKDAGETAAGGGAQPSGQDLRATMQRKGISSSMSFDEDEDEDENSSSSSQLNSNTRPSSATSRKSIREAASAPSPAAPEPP
# B1: GST-tubby-F (GST fused to full-length mouse tubby) (other, UniProt P50586 1-505, looked up)
# chain: MTSKPHSDWIPYSVLDDEGSNLRQQKLDRQRALLEQKQKKKRQEPLMVQANADGRPRSRRARQSEEQAPLVESYLSSSGSTSYQVQEADSIASVQLGATRPPAPASAKKSKGAAASGGQGGAPRKEKKGKHKGTSGPATLAEDKSEAQGPVQILTVGQSDHDKDAGETAAGGGAQPSGQDLRATMQRKGISSSMSFDEDEDEDENSSSSSQLNSNTRPSSATSRKSIREAASAPSPAAPEPPVDIEVQDLEEFALRPAPQGITIKCRITRDKKGMDRGMYPTYFLHLDREDGKKVFLLAGRKRKKSKTSNYLISVDPTDLSRGGDSYIGKLRSNLMGTKFTVYDNGVNPQKASSSTLESGTLRQELAAVCYETNVLGFKGPRKMSVIVPGMNMVHERVCIRPRNEHETLLARWQNKNTESIIELQNKTPVWNDDTQSYVLNFHGRVTQASVKNFQIIHGNDPDYIVMQFGRVAEDVFTMDYNYPLCALQAFAIALSSFDSKLACE
# notes: mature; Expressed in E. coli BL21(DE3) from pGEX-2T; not shown: glutathione S-transferase of pGEX-2T (Schistosoma japonicum)
# B2: Tubby like protein 1 (Tulp1) 125D-243E, phage clone (other, mouse, UniProt Q9Z273 125-243, looked up)
# chain: DDDEEEEEKKEGKKEKSSLPPKKAPKEREKKAKALGPRGDVGSPDAPRKPLRTKKKEVGEGTKLRKAKKKGPGETDKDPAGSPAALRKEFPAAMFLVGEGGAAEKGVKKKGPPKGSEEE
# notes: range 125-243; For Y2H recloned into pGAD424
# B3: CCCTC-binding factor (Ctcf) 136G-400T, phage clone (other, mouse, UniProt Q61164 136-400, looked up)
# chain: GAYENEVSKEGLAESEPMICHTLPLPEGFQVVKVGANGEVETLEQGELPPQEDSSWQKDPDYQPPAKKTKKTKKSKLRYTEEGKDVDVSVYDFEEEQQEGLLSEVNAEKVVGNMKPPKPTKIKKKGVKKTFQCELCSYTCPRRSNLDRHMKSHTDERPHKCHLCGRAFRTVTLLRNHLNTHTGTRPHKCPDCDMAFVTSGELVRHRRYKHTHEKPFKCSMCDYASVEVSKLKRHIRSHTGERPFQCSLCSYASRDTYKLKRHMRT
# notes: range 136-400; For Y2H recloned into pGAD424
# B4: Structure specific recognition protein 1 (Ssrp1) 486E-619G, phage clone (other, mouse, UniProt Q08943 486-619, looked up)
# chain: EEEEDVAEEFDSNASASSSSNEGDSDREEKKREQLKRAKMAKDRKSRRKSSEAKKGKDPNAPKRPMSAYMLWLNASREKIKSDHPGISITDLSKKAGEIWKGMSKEKKEEWDRKAEDARREYEKAMKEYEGGRG
# notes: range 486-619; Minimal overlap of 2 independent clones; For Y2H recloned into pGAD424
# B5: High mobility group box 2 (Hmgb2) 89K-188E, phage clone (other, mouse, UniProt P30681 89-188, looked up)
# chain: KKDPNAPKRPPSAFFLFCSENRPKIKIEHPGLSIGDTAKKLGEMWSEQSAKDKQPYEQKAAKLKEKYEKDIAAYRAKGKSEAGKKGPGRPTGSKKKNEPE
# notes: range 89-188; Minimal overlap of 5 independent clones; For Y2H recloned into pGAD424
# B6: Zinc finger E-box binding homeobox 1 (Zeb1) 903E-1021E, phage clone (other, mouse, UniProt Q64318 903-1021, looked up)
# chain: EHTGKRPHECGICRKAFKHKHHLIEHMRLHSGEKPYQCDKCGKRFSHSGSYSQHMNHRYSYCKRGAEDRDAMEQEDAGPEVLPEVLATEHVGARASPSQADSDERESLTREEDEDSEKE
# notes: range 903-1021; Residues are the minimal overlap of 2 independent clones; For Y2H the insert was recloned into pGAD424
# B7: IQ motif containing GTPase activating protein 2 (Iqgap2) 1232E-1368E, phage clone (other, mouse, UniProt Q3UQ44 1232-1368, looked up)
# chain: EKSDLLNELLESLGEVPTVESFLGEGAVDPNDPNKENTLNQLSKTEISLSLTSKYDVKDGEAVDGRSLMIKTKKLIIDVTRNQPGSTLTEILETPATGQQELEHAKDMESRAVVDSRTPEEGKQSQAVIEDARLPLE
# notes: range 1232-1368
# B8: PC4 and SFRS1 interacting protein 1 (Psip1) 152K-219K, phage clone (other, mouse, UniProt Q99JF8 152-219, looked up)
# chain: KAEKQVDTEEAGMVTAATASNVKASPKRGRPAATEVKIPKPRGRPKVVKQPCPSDGDMVIDEDKSKKK
# notes: range 152-219; Minimal overlap of 4 independent clones; For Y2H recloned into pGAD424
# B9: Microtubule-associated protein 7 (Mtap7) 23A-114R, phage clone (other, mouse, UniProt O88735 23-114, looked up)
# chain: ASDGYKVQEKRTAPSRPTSTVSGQTSNHSGNKPDPPPVLRVDDRQRLARERREEREKQLAARETVWLEREERARQHYERHLEARKKKLEDQR
# notes: range 23-114; For Y2H recloned into pGAD424
# B10: ATP-binding cassette F1 (Abcf1) 57K-196G, phage clone (other, mouse, UniProt Q6P542 57-196, looked up)
# chain: KLQKEKEQQQQQQQQKKKRDTRKGRRKKDVDDDSDERVLMERLKQLSVPASDEEDEVPAPIPRGRKKAKGGNVFEALIQDDSEEEEEEEENRVLKPAKPEKNRINKAVAEEPPGLRSKKGKEEKSKGKAKSKPAAADSEG
# notes: Minimal overlap of 2 independent clones; For Y2H recloned into pGAD424
# B11: Zinc finger protein 609 (Zfp609) 1M-183E, phage clone (other, mouse, UniProt Q8BZ47 1-183, looked up)
# chain: MSLSSGACGGKGVDANPVETYDSGDEWDIGVGNLIIDLDADLEKDQQKLEMSGSKEVGIPAPNAVATLPDNIKFVTPVPGPQGKEGKSKSKRSKSGKDASKPTPGTSLFSPSEGAASKKEVQGRAGDGASAGGLVAAVAPKGSEKAAKASRSVAGSKKEKENSSSKGKKERSEGVGTCSEKDP
# notes: range 1-183; Minimal overlap of 2 independent clones; For Y2H recloned into pGAD424
# B12: PH207: Microfibrillar-associated protein IA or IB (Mfap1) 160K-290E, phage clone (other)
# chain: KNEEMEVMEVEDEGRSGEESESESEYEEYTDSEDEMEPRLKPVFIRKKDRVTVQEREAEALKQKELEQEAKRMAEERRKYTLKIVEEETKKELEENKRSLAALDALNTDDENDEEEYEAWKVRELKRIKRE
# notes: Frequency 4; not shown: T7 capsid 10B fusion partner, linker/3C cleavage site and C-terminal biotinylation tag of the phage display construct
# B13: PH181: SPRY domain containing 3 (Spryd3) 31I-215S, phage clone (other, mouse)
# chain: IREIREVRAFRYQERFKHILVDGDTLSYHGNSGEVGCYVASRPLTKDSNYFEVSIVDSGVRGTIAVGLVPQYYSLDHQPGWLPDSVAYHADDGKLYNGRAKGRQFGSKCNSGDRIGCGIEPVSFDVQTAQIFFTKNGKRVGSTIMPMSPDGLFPAVGMHSLGEEVRLHLNAELGREDDSVMMVDS
# notes: range 31-215; Frequency 8
# B14: PH194: Growth arrest specific 6 (Gas6) 43Q-148R, phage clone (ligand, mouse, UniProt Q61592 43-148, looked up)
# chain: QRRAYQVFEEAKQGHLERECVEEVCSKEEAREVFENDPETEYFYPRYQECMRKYGRPEEKNPDFAKCVQNLPDQCTPNPCDKKGTHICQDLMGNFFCVCTDGWGGR
# notes: range 43-148
# Molecular target: T1, FLAG-tubby-F (full-length mouse tubby …)
# Test: GST pull-down: GST-tubby with lysate of cells expressing the FLAG-tagged protein, glutathione resin, Western blot with anti-FLAG mAb
row,Binder,binding result
1,B1,no binding

# Molecular target: T2, FLAG-tagged Tulp2 (full-length mouse …)
# Test: as above
row,Binder,binding result
1,B1,no binding

# Molecular target: T3, tubby-N (N-terminus of mouse tubby, …)
# Test: clonal phage on immobilized tubby-N, plaque assay
row,Binder,Binding to tubby-N (binding specificity of clonal phage vs. control phage)
1,B2,~49 X (fold)
2,B3,~117 X (fold)
3,B4,~157 X (fold)
4,B5,~312 X (fold)
5,B6,~284 X (fold)
6,B7,~53.2 X (fold)
7,B8,~196 X (fold)
8,B9,~3.5 X (fold)
9,B10,~68.2 X (fold)
10,B11,~53.2 X (fold)

# Molecular target: T4, Axl-Fc (Axl extracellular domain fused to human IgG1 Fc fragment) (human)
# T4 construct: extracellular domain; Bought (R&D Systems)
# T4 sequence (P30530 whole entry, the tested form may be a part): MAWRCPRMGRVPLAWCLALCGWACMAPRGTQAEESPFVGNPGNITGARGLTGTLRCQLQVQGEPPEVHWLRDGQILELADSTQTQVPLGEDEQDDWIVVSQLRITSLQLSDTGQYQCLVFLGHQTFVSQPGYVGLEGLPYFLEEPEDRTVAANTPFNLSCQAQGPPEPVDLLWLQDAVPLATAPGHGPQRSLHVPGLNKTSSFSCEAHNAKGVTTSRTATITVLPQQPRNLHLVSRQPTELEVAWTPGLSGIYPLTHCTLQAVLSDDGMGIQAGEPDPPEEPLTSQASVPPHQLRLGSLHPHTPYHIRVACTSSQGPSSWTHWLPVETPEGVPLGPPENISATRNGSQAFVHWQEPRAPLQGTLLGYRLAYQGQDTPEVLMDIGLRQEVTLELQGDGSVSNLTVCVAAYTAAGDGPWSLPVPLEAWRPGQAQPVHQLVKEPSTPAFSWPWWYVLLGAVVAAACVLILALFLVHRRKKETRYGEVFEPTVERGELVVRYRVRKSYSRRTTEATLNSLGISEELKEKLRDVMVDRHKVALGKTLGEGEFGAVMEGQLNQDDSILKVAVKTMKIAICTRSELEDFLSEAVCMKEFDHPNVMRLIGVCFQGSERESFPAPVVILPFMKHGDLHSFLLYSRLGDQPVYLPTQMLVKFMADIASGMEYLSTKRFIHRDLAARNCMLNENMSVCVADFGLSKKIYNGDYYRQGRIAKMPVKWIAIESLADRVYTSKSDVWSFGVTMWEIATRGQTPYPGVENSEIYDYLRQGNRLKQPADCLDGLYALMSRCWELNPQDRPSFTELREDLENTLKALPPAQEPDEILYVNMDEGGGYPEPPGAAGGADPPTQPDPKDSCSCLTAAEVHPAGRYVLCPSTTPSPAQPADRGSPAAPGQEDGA
# Test: clonal phage on immobilized Axl-Fc, plaque assay
row,Binder,Binding activity (pfu ratio of clonal phage binding to immobilized Axl-Fc versus blank)
1,B12,~36700 X (fold)
2,B13,~1e+06 X (fold)
3,B14,~40 X (fold)

# Molecular target: T1, FLAG-tubby-F (full-length mouse tubby …)
# Test: clonal phage on immobilized FLAG-tubby-F, plaque assay
row,Binder,Binding to tubby-F (binding specificity to FLAG-tubby-F vs. to GFP-FLAG)
1,B2,~29.1 X (fold)
2,B3,~44.9 X (fold)
3,B4,~4.5 X (fold)
4,B5,~21.7 X (fold)
5,B6,~28.7 X (fold)
6,B7,~1.8 X (fold)
7,B8,~24 X (fold)
8,B9,~3.8 X (fold)
9,B10,~27.2 X (fold)
10,B11,~2.3 X (fold)
